From patent US20240288436A1 (KOREA ATOMIC ENERGY RESEARCH INSTITUTE, published 2024)

T1: Biotin-GSAGGSTWGYPFHDGDYLNDE synthetic peptide (human TM4SF4 aa 126-140) (human, N-terminal biotin)
T1 construct: Immobilised on a streptavidin sensor chip as the SPR ligand; also called Biotin-hTM4SF4 aa 126-140; human TM4SF4-peptide (hTM4SF4 aa 126-140)
T1 peptide: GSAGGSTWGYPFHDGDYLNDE


What was measured:
[1] = biological target: T2, BSA (UniProt P02769 25-607); assay: indirect ELISA on coated BSA (1 µg/ml), anti-human IgG kappa-HRP, OD490nm
T2 construct: Coated at 1 ug/ml as the specificity control; also called BSA solution
T2 sequence (P02769 25-607 limits assumed): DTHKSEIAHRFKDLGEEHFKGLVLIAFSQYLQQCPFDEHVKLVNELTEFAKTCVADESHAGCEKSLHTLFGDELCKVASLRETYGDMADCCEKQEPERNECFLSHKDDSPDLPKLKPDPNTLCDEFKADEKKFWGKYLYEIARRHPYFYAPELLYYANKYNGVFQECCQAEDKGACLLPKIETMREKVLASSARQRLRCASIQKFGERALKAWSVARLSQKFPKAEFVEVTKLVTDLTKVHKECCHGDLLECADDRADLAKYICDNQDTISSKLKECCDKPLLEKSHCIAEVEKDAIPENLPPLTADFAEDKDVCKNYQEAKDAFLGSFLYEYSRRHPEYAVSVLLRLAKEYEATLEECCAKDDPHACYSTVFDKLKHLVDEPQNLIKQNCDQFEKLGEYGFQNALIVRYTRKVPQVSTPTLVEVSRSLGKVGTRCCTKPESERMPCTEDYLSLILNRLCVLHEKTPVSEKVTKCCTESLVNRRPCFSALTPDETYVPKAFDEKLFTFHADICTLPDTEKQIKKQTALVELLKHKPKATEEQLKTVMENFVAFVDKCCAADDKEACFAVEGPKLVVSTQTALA
Protocol: Specifically, the humanized antibody was manufactured in 10 types of Hz2B7-1.1, Hz2B7-1.2, Hz2B7-1.3, Hz2B7-2.1, Hz2B7-3.1, Hz2B7-3.2, Hz2B7-3.3, Hz2B7-4.1, Hz2B7-4.2 and Hz2B7-4.3, by combining 4 heavy chain variable region variants and 3 light chain variable region variants designed through Examples 1 and 2 above. For this, 100 μ of TM4SF4-BSA (1 μg/m ) or BSA solution (1 μg/M ) dissolved in coating buffer (100 mM carbonate/bicarbonate coating buffer, pH 9.6) was added to the bottom of each well of a 96-well plate and adsorbed at 4° C. for more than 16 hours. Next, the coated antigen was washed three times with washing buffer (wash buffer, 0.05% PBS-T, Tween-20), then 200 μ of block buffer (blocking buffer, 5% skim milk in wash buffer) was added to the bottom of each well where the antigen was not adsorbed, reacted at 4° C. for more than 16 hours, and then washed again three times with washing buffer. Then, the 10 combinations of the humanized antibodies and the chimeric antibodies purified through Experimental Example 1 were prepared by diluting them to various concentrations using block buffer, and then 100 μ a of each concentration was added to each well and reacted for 2 hours at room temperature. After washing again three times, 1 mg/ml antibody (α-human IgG-Kappa chain-HRP, Bethyl, USA) for detection was diluted 10,000-fold using block buffer solution, and 100 μ was added to each well and incubated at room temperature for 1 hour. After the reaction was completed, the wells were washed three times with washing buffer, 100 μl of substrate solution (OPD solution, 4 μ 30% H₂O₂, 100 μ OPD stock (40 mg/m ), adjusted to 10 m with phosphate citrate buffer) was added to each well, and the reaction was performed at room temperature. Then, 50 μl of 2.5M H₂SO₄ was added to terminate the reaction. Finally, to measure the activity of the enzyme bound to the solid phase, the absorbance was measured at 490 nm using an ELISA reader (FIG. 10).

[2] = biological target: T1, Biotin-GSAGGSTWGYPFHDGDYLNDE synthetic …; assay: SPR, Biacore T200, biotin-peptide on streptavidin chip, antibody as analyte, 1:1 binding
Protocol: (§1) First, a streptavidin-conjugated sensor chip (Series S Senser Chip SA, Cytiva) was inserted into Biacore T200 (Cytiva), and activation buffer (1M NaCl, 50 mM NaOH) was flowed for 30 seconds, followed by HBS-EP buffer (Cytiva) to induce activation and stabilization of the sensor chip surface. […] The analyze antibodies of each concentration were flowed through the constructed ligand-bound streptavidin conjugated sensor chip at a rate of 30 ul/min for 480 seconds to induce binding, and then HBS-EP buffer solution was flowed at the same time and speed, and the degree to which the analyte antibody was dissociated from the ligand peptide was obtained in the form of a response unit. The association rate (Ka), dissociation rate (Kd), and equilibrium dissociation constant (KD, Kd/Ka) values were calculated using Biacore T200 evaluation software (Cytiva) by excluding the ligand-unbound sensor chip response values obtained in the same manner. As a calculation standard, the mass transfer fitting model for the interaction between the ligand peptide and the analyte antibody was analyzed using 1:1 binding.

[3] = biological target: T1, Biotin-GSAGGSTWGYPFHDGDYLNDE synthetic …; assay: SPR (Biacore T200), biotin-TM4SF4(126-140) peptide captured on SA sensor chip, antibody as analyte, 1:1 binding model with mass transfer
Protocol: as §1

binding result [1]	Kd [2]	koff [3]	kon [3]	Binder
no binding (tested: 1000 ng/ml)	35.4 nM	–	–	Hz2B7-1.3 humanized anti-TM4SF4 antibody (LC N31V) (antibody, V domains shown, Whole IgG, human IgG1 / kappa constant regions from the pdCMV-dhfr vector; only VH and VL are tied to the antibody; also called HzE2B7-1.3; HzE2B7-1.3(LC N31V)) VH: EITLKESGPTLVKPTQTLTLTCTFSGFSLSTYGIGVSWIRQPPGKALEWLAHIWWNDNKYYNTALKSRLTITKDTSKNQVVLTMTNMDPVDTATYYCARKEGSSAPFAYWGQGTLVTVSS VL: DIVMTQSPDSLAVSLGERATINCKSSQSLLVSSNQKNYLAWYQQKPGQPPKLLIYFASTRESGVPDRFSGSGSGTDFTLTISLMQAEDVAVYYCQQHYRTPPTFGQGTKVEIK
no binding (tested: 1000 ng/ml)	–	–	–	Hz2B7-1.1 humanized anti-TM4SF4 antibody (antibody, human IgG1, V domains shown, Tested as whole IgG from the pdCMV-dhfr vector (human IgG1 heavy constant, human kappa light constant); also called HzE2B7-1.1; HzE2B7-1.1(origin)) VH: EITLKESGPTLVKPTQTLTLTCTFSGFSLSTYGIGVSWIRQPPGKALEWLAHIWWNDNKYYNTALKSRLTITKDTSKNQVVLTMTNMDPVDTATYYCARKEGSSAPFAYWGQGTLVTVSS VL: DIVMTQSPDSLAVSLGERATINCKSSQSLLNSSNQKNYLAWYQQKPGQPPKLLIYFASTRESGVPDRFSGSGSGTDFTLTISLMQAEDVAVYYCQQHYRTPPTFGQGTKVEIK
no binding (tested: 1000 ng/ml)	–	–	–	Hz2B7-2.1 humanized anti-TM4SF4 antibody (antibody, human IgG1, V domains shown, Whole IgG, human IgG1 / kappa constant regions) VH: EITLKESGPTLVKPTQTLTLTCTFSGFSLSTYGIGVSWIRQPPGKVLEWLAHIWWNDNKYYNTALKSRLTITKDTSKNQVVLTMTNMDPVDTATYYCARKEGSSAPFAYWGQGTLVTVSS VL: DIVMTQSPDSLAVSLGERATINCKSSQSLLNSSNQKNYLAWYQQKPGQPPKLLIYFASTRESGVPDRFSGSGSGTDFTLTISLMQAEDVAVYYCQQHYRTPPTFGQGTKVEIK
no binding (tested: 1000 ng/ml)	–	–	–	Hz2B7-4.1 humanized anti-TM4SF4 antibody (antibody, human IgG1, V domains shown, Whole IgG, human IgG1 / kappa constant regions) VH: EITLKESGPTLVKPTQTLTLTCTFSGFSLSTYGIGVSWIRQPPGKALEWLAHIWYNDNKYYNTALKSRLTITKDTSKNQVVLTMTNMDPVDTATYYCARKEGSSAPFAYWGQGTLVTVSS VL: DIVMTQSPDSLAVSLGERATINCKSSQSLLNSSNQKNYLAWYQQKPGQPPKLLIYFASTRESGVPDRFSGSGSGTDFTLTISLMQAEDVAVYYCQQHYRTPPTFGQGTKVEIK
no binding (tested: 1000 ng/ml)	–	–	–	Hz2B7-3.1 humanized anti-TM4SF4 antibody (antibody, human IgG1, V domains shown, Whole IgG, human IgG1 / kappa constant regions) VH: EITLKESGPTLVKPTQTLTLTCTFSGFSLSTYGIGVSWIRQPPGKALEWLAHIWSNDNKYYNTALKSRLTITKDTSKNQVVLTMTNMDPVDTATYYCARKEGSSAPFAYWGQGTLVTVSS VL: DIVMTQSPDSLAVSLGERATINCKSSQSLLNSSNQKNYLAWYQQKPGQPPKLLIYFASTRESGVPDRFSGSGSGTDFTLTISLMQAEDVAVYYCQQHYRTPPTFGQGTKVEIK
no binding (tested: 1000 ng/ml)	–	–	–	Hz2B7-4.2 humanized anti-TM4SF4 antibody (antibody, human IgG1, V domains shown, Whole IgG, human IgG1 / kappa constant regions) VH: EITLKESGPTLVKPTQTLTLTCTFSGFSLSTYGIGVSWIRQPPGKALEWLAHIWYNDNKYYNTALKSRLTITKDTSKNQVVLTMTNMDPVDTATYYCARKEGSSAPFAYWGQGTLVTVSS VL: DIVMTQSPDSLAVSLGERATINCKSSQSLLFSSNQKNYLAWYQQKPGQPPKLLIYFASTRESGVPDRFSGSGSGTDFTLTISLMQAEDVAVYYCQQHYRTPPTFGQGTKVEIK
no binding (tested: 1000 ng/ml)	112 nM	0.000792 s⁻¹	7080 M⁻¹ s⁻¹	Hz2B7-3.2 humanized anti-TM4SF4 antibody (HC W55S, LC N31F) (antibody, V domains shown, Whole IgG, human IgG1 / kappa constant regions; also called HzE2B7-3.2; HzE2B7-3.2(HC W55S, LC N31F)) VH: EITLKESGPTLVKPTQTLTLTCTFSGFSLSTYGIGVSWIRQPPGKALEWLAHIWSNDNKYYNTALKSRLTITKDTSKNQVVLTMTNMDPVDTATYYCARKEGSSAPFAYWGQGTLVTVSS VL: DIVMTQSPDSLAVSLGERATINCKSSQSLLFSSNQKNYLAWYQQKPGQPPKLLIYFASTRESGVPDRFSGSGSGTDFTLTISLMQAEDVAVYYCQQHYRTPPTFGQGTKVEIK
no binding (tested: 1000 ng/ml)	–	–	–	Hz2B7-4.3 humanized anti-TM4SF4 antibody (HC W55Y, LC N31V) (antibody, V domains shown, Whole IgG, human IgG1 / kappa constant regions; also called HzE2B7-4.3; HzE2B7-4.3(HC W55Y, LC N31V)) VH: EITLKESGPTLVKPTQTLTLTCTFSGFSLSTYGIGVSWIRQPPGKALEWLAHIWYNDNKYYNTALKSRLTITKDTSKNQVVLTMTNMDPVDTATYYCARKEGSSAPFAYWGQGTLVTVSS VL: DIVMTQSPDSLAVSLGERATINCKSSQSLLVSSNQKNYLAWYQQKPGQPPKLLIYFASTRESGVPDRFSGSGSGTDFTLTISLMQAEDVAVYYCQQHYRTPPTFGQGTKVEIK
no binding (tested: 1000 ng/ml)	–	–	–	Hz2B7-1.2 humanized anti-TM4SF4 antibody (LC N31F) (antibody, V domains shown, Whole IgG, human IgG1 / kappa constant regions from the pdCMV-dhfr vector; only VH and VL are tied to the antibody; also called HzE2B7-1.2; HzE2B7-1.2(LC N31F)) VH: EITLKESGPTLVKPTQTLTLTCTFSGFSLSTYGIGVSWIRQPPGKALEWLAHIWWNDNKYYNTALKSRLTITKDTSKNQVVLTMTNMDPVDTATYYCARKEGSSAPFAYWGQGTLVTVSS VL: DIVMTQSPDSLAVSLGERATINCKSSQSLLFSSNQKNYLAWYQQKPGQPPKLLIYFASTRESGVPDRFSGSGSGTDFTLTISLMQAEDVAVYYCQQHYRTPPTFGQGTKVEIK
no binding (tested: 1000 ng/ml)	–	–	–	Hz2B7-3.3 humanized anti-TM4SF4 antibody (antibody, human IgG1, V domains shown, Whole IgG, human IgG1 / kappa constant regions) VH: EITLKESGPTLVKPTQTLTLTCTFSGFSLSTYGIGVSWIRQPPGKALEWLAHIWSNDNKYYNTALKSRLTITKDTSKNQVVLTMTNMDPVDTATYYCARKEGSSAPFAYWGQGTLVTVSS VL: DIVMTQSPDSLAVSLGERATINCKSSQSLLVSSNQKNYLAWYQQKPGQPPKLLIYFASTRESGVPDRFSGSGSGTDFTLTISLMQAEDVAVYYCQQHYRTPPTFGQGTKVEIK
